The values that follow come from US12404346B2, “Anti-naloxone and anti-naltrexone monoclonal antibodies and methods of production and use thereof” (Siemens Healthcare Diagnostics Inc., priority 2019, dated 2025).

For assay [1] the following is noted: Randox naloxone assay, competitive chemiluminescent immunoassay; cited from earlier work.
Assay [2] can be described thus: hydrocodone assay with antibody blocker (FIG. 13). The following applies: cutoff 300 ng/ml.
The nature of assay [3]: inhibition ELISA, anti-naltrexone monoclonal antibodies against key opioids (FIG. 8). It is filed as binding. The following applies: free drug 20 μg/mL, plates coated with ovalbumin conjugate. From the text:
(§1) Mice with good anti-drug antibody titers and binding to free drug in the ELISA inhibition assays were selected to proceed with generation of monoclonal antibodies, in a similar manner to that described in U.S. Pat. No. 9,815,907 (issued to Sharma et al. on Nov. 14, 2017). In particular, mice with highest titers and best specificity were boosted three days prior to fusion. On the day of fusion, spleen cells were harvested from these mice and were fused with myeloma cell line P3X63Ag8.653 using PEG-assisted fusion protocols. After about ten days, hybridoma supernatants were screened for anti-naloxone and anti-naltrexone antibodies using a plate ELISA (direct binding and inhibition ELISA for specificity). Positive clones were further expanded and sub-cloned, and supernatants were purified using a Protein A SEPHAROSE® (GE Healthcare, Chicago, IL) column. Purified antibody samples were tested using ELISA for binding to the immunogen (i.e., a conjugate of drug-carrier protein) and to free opioids.
(§2) Antibody solution (Immune mouse bleeds or hybridoma clones supernatant or purified antibody) was screened using an inhibition ELISA procedure according to the following protocol. […] Plate coating was performed for 1 hour or more at room temperature or overnight at about 2° C. to 8° C. The plates were then flicked dry and blocked with 200 μL per well of blocking buffer solution (0.5% Casein solution in PBS containing 0.05% TWEEN® 20 surfactant (Croda International PLC, Snaith, United Kingdom). Plate blocking was performed by incubation for 30 minutes or more at room temperature with plate shaking. The plates were washed using a plate washer (BioTek®, Winooski, VT) with plate stacker with the washing buffer being MILLIQ® water (Millipore Corporation, Billerica, MA) containing 0.05% TWEEN® 20. The monoclonal antibody to be screened was then added to each well along with free drug as follows: 25 μL per well of appropriately diluted culture supernatant (or antibody solution) and added 25 μL of 20 μg/mL of free drug. Incubation was performed for about 1 hour at room temperature with plate shaking. The plate was washed. An enzyme conjugate (goat anti-mouse IgG coupled to HRP diluted in blocking buffer diluted to 1:3000) was added at 50 μL per well. Incubation was performed for about 1 hour at room temperature with shaking. The plate was then washed, and a chromogenic solution (TMB from Moss Substrates, Pasadena MD) was added at a volume of 100 μL per well. If a desired antibody was present in the hybridoma supernatant, then a decrease in optical density was observed compared to the well containing no free drug. The plates were read at 650 nm wavelength using an ELISA plate reader (Molecular Devices, San Jose, CA). Note: appropriate dilution of antibody solution was determined by performing a titration ELISA. The antibody dilution was chosen where around 1.0 optical density was observed.
(ELISA stands for enzyme-linked immunosorbent assay.)

The nature of assay [4]: naloxone and naltrexone specific immunoassays (FIG. 9, FIG. 10). The class given is binding. As to conditions: FIG. 9 and FIG. 10. The text has this:
An EMIT® II (enzyme multiplied immunoassay, Siemens Healthineers, Newark, DE) Plus Naloxone and/or Naltrexone Assay is a homogeneous enzyme immunoassay technique used for the analysis of specific compounds in human urine. The assay is based on competition between drug in the specimen and drug labeled with glucose-6-phosphate dehydrogenase (rG6PDH) for antibody binding sites. Enzyme activity decreases upon binding to the antibody, so the drug concentration in the specimen can be measured in terms of enzyme activity. Active enzyme converts nicotinamide adenine dinucleotide (NAD) to NADH in the presence of glucose-6-phosphate (G6P), resulting in an absorbance change that is measured spectrophotometrically.
The EMIT® assay format comprises an antibody/substrate reagent, known as reagent 1. This reagent includes the antibody as well as buffers, preservatives, and stabilizers for the assay. The EMIT® assay format also comprises an enzyme reagent, known as reagent 2. This reagent includes the conjugate as well as buffers, preservatives, and stabilizers for the assay.

The nature of assay [5]: opiate enzyme multiplied immunoassay with antibody blocker (FIG. 11, FIG. 12). The following applies: cutoff 300 ng/mL; FIG. 11 and FIG. 12.
Assay [6] is described as follows: inhibition ELISA, anti-naloxone monoclonal antibodies against key opioids (FIG. 7). The class given is binding. As to conditions: free drug 20 μg/mL, plates coated with ovalbumin conjugate.
Description: as §1, §2

Consider `C=CCN1CC[C@]23c4c5ccc(O[C@@H]6O[C@H](C(=O)O)[C@@H](O)[C@H](O)[C@H]6O)c4O[C@H]2C(=O)CC[C@@]3(O)[C@H]1C5` [naloxone 3-B-D glucuronide], for which the level of cross-reactivity in assay [1] was 70.6%.

B1: 180C 2A12: anti-naltrexone monoclonal antibody generated using naltrexone-3-Val-mcKLH; heavy chain SEQ ID NO:1, light chain SEQ ID NO:5 (antibody)
heavy: MGWSWIFLFLLSGTAGVHCQVQLQQSGPELVKPGGSVKLSCKASGYIFNDYTIHWMKQSPGQGLEWIGWMNRRSFNTMYNDKFKGKATMTVDKSSSTAYIQLSSLTSDDSAVYFCVRDVYDNLDYWGQGTSVTVSSAKTTPPSVYPLAPGSAAQTNSMVTLGCLVKGYFPEPVTVTWNSGSLSSGVHTFPAVLQSDLYTLSSSVTVPSSTWPSETVTCNVAHPASSTKVDKKIVPRDCGCKPCICTVPEVSSVFIFPPKPKDVLTITLTPKVTCVVVDISKDDPEVQFSWFVDDVEVHTAQTQPREEQFNSTFRSVSELPIMHQDWLNGKEFKCRVNSAAFPAPIEKTISKTKGRPKAPQVYTIPPPKEQMAKDKVSLTCMITDFFPEDITVEWQWNGQPAENYKNTQPIMDTDGSYFIYSKLNVQKSNWEAGNTFTCSVLHEGLHNHHTEKSLSHSPGK
light: MKLPVRLLVLMFWIPASSSDVLMTQTPLSLPVSLGDQASISCRSSQSIVHSNGNTYLEWYLQKPGQSPRLLIYKVSNRFSGVPDRFSGSGSGTDFTLRISRVEAEDLGLYYCFQGSHVPLTFGAGTKLELKRADAAPTVSIFPPSSEQLTSGGASVVCFLNNFYPRDINVKWKIDGSERQNGVLNSWTDQDSKDSTYSMSSTLTLTKDEYERHNSYTCEATHKTSTSPIVKSFNRNEC
modifications: Amino Acid sequence of heavy chain of monoclonal antibody SHC 004; Amino acid sequence of Light Chain of monoclonal antibody SHC 004
Consider B1, for which the “effect of the antibody blocker on amount of naloxone and naltrexone giving a negative response” value in assay [2] was “increase the amount of naloxone and naltrexone that produces a negative response to the cutoff”. In addition, the “specificity for naltrexone over the other key opioids tested in the inhibition ELISA assay” value in assay [3] is “good specificity for naltrexone”. In assay [4], the “detection of naloxone and naltrexone in specific assays” value is listed as “capable of detecting naloxone in addition to naltrexone, albeit at a lower specificity compared to naltrexone”.

B2: 180A 3D3: anti-naltrexone monoclonal antibody generated using naltrexone-3-Val-mcKLH; heavy chain SEQ ID NO:21, light chain SEQ ID NO:25 (antibody)
heavy: MYLGLNCVFIVFLLKGVQSEVNLEESGGGLVQPGGSMKLSCVASGFTFSNYWMNWVRQSPERGLEWVAEISLKSYNYATHYAESVKGRFTISGDESKNSVYLQMNNLRAEDTGIYFCTRGDSYALDYGQRTLVTVSS
light: MEFQTQVLMSLLLCMSGACADIVMTQSPTFLAVTVSKKVTISCTASESLYSSKHKVHYLAWYQKKPEQSPKLLIYGASNRYIGVPDRFTGSGSGTDFTLTISSVQVEDLTHYYCAQFYSYPYTFGGGKLEIK
modifications: Amino Acid sequence of heavy chain of monoclonal antibody 180A 3D3; Amino Acid sequence of light chain of monoclonal antibody 180A 3D3
On to B2, for which, in assay [5], the “change of naloxone/naltrexone cross reactivity response in the presence of the antibody blocker” value is “cross reactivity of naloxone and naltrexone changes from a positive to a negative response to the cutoff”. Also, the “specificity for naltrexone over the other key opioids tested in the inhibition ELISA assay” value in assay [3] was “good specificity for naltrexone”.

B3: 179B 10A7: anti-naloxone monoclonal antibody generated using naloxone-3-Val-mcKLH; heavy chain SEQ ID NO:201, light chain SEQ ID NO:205 (antibody, V domains shown)
VH: MGWSWIFLFLLSGTAGVHCQIQLQQSGPELVKPGASVKISCKASDYSFTKSYINWVKQRPGQGLEWIGWIYPGSANIKYNEKFRDKATLTVDTSSNTAYIQLSSLTSEDSAVYFCEMGTHYTYDVMDWGQGTSVTVSS
VL: MEFQTQVFVFVLLWLSGVDGDIVMTPSQKFMSTSVGDRVSITCKASQNVRTSVGWYQQKPGQSPKPLIYAASNRHTGVPDRFTGSGSGTDFSLTITNVQSEDQADYFCLQHWNYPWTFGGGTKLEIK
modifications: Amino acid sequence of heavy chain of monoclonal antibody 179B 10A7; Amino acid sequence of light chain of monoclonal antibody 179B 10A7
As for B3, the “specificity for naloxone over the other key opioids tested in the inhibition ELISA assay” value in assay [6] was “good specificity for naloxone”.

B4: 179A 6H6: anti-naloxone monoclonal antibody generated using naloxone-3-Val-mcKLH; heavy chain SEQ ID NO:221, light chain SEQ ID NO:225 (antibody, V domains shown)
VH: MYLGLNCVIIVFLLKGVQSEVKLEESGGGLVPPGGSMKLSCSVSGFTFSDAWIDWVRQSPEKGLEWIAESRNKANNYAIYYTESVKGRFTISRDDSKSRVYLQMNNLRVEDTGIYYCTGPDYDSYWGGTLVTVSA
VL: MEFQTQVFVFVLLWLSGVDGDVVMTQSQKIMSTSVGDRVSITCKASQNVRTAVTWYQLKPGQSPKALIYLASNRHTGVPDRFRGSGSGTDFTLTIINVQSEDLADYFCLQHWNYPLTFGAGTKLELK
modifications: Amino acid sequence of heavy chain of monoclonal antibody 179A 6H6; Amino acid sequence of light chain of monoclonal antibody 179A 6H6
Regarding B4, the “change of naloxone/naltrexone cross reactivity response in the presence of the antibody blocker” value in assay [5] is given as “cross reactivity of naloxone changes from a positive to a negative response to the cutoff”. The “specificity for naloxone over the other key opioids tested in the inhibition ELISA assay” value in assay [6] is given as “good specificity for naloxone”. Besides, in assay [4], the “detection of naloxone and naltrexone in specific assays” value is “detects both naloxone and naltrexone at substantially the same specificity”.

B5: 179B 9E7: anti-naloxone monoclonal antibody generated using naloxone-3-Val-mcKLH; heavy chain SEQ ID NO:241, light chain SEQ ID NO:245 (antibody)
heavy: MYLGLNCVIIVFLLKGVQSEMKLEESGGGLVQPGGSMKLSCTASGFTFSDAWMDWVRQSPEKGLEWVAEIRNKAYNHATYYAESVRGRFTISRDDSKSKMFLEMNSLRPEDTGIYYCIGGIWTDFDYGQGTTLTVSS
light: MESQTQVFVYMLLWLSGVDGDIVMTQSQKFMSTSVGDRVSVTCKASQNVGINVAWYQQKSGQPPKALIYSASSRYSGVPDRFTGSGSGTDFTLTISNVQSEDLAEYFCHQYNNYPLTFGAGTKLDLK
modifications: Amino acid sequence of heavy chain of monoclonal antibody 179B 9E7; Amino acid sequence of light chain of monoclonal antibody 179B 9E7
Regarding B5, the “specificity for naloxone over the other key opioids tested in the inhibition ELISA assay” value in assay [6] is on record as “good specificity for naloxone”.
